Molecular target: sodium/potassium-transporting ATPase ATP1A3, F309S mutant, V5-tagged (human, UniProt P13637-3 1-1026, F309S)
Assay: co-IP

B1: TOMM22, GFP-tagged (natural protein, UniProt Q9NS69 1-142, looked up)
chain: MAAAVAAAGAGEPQSPDELLPKGDAEKPEEELEEDDDEELDETLSERLWGLTEMFPERVRSAAGATFDLSLFVAQKMYRFSRAALWIGTTSFMILVLPVVFETEKLQMEQQQQLQQRQILLGPNTGLSGGMPGALPSLPGKI
- reduction of the interaction against WT ATP1A3: ~50%
